Measured values taken from US20240166750A1 (published 2024).
Positions count from the first letter of the chain named. Names and notes keep the numbering of the source.

B1: human IgG1 antibody specific for protein 4, S239D/S298A + R292C/V302C, -Kif (antibody)
chain: ASTKGPSVFPLAPSSKSTSGGTAALGCLVKDYFPEPVTVSWNSGALTSGVHTFPAVLQSSGLYSLSSVVTVPSSSLGTQTYICNVNHKPSNTKVDKKVEPKSCDKTHTCPPCPAPELLGGPDVFLFPPKPKDTLMISRTPEVTCVVVDVSHEDPEVKFNWYVDGVEVHNAKTKPCEEQYNATYRCVSVLTVLHQDWLNGKEYKCKVSNKALPAPIEKTISKAKGQPREPQVYTLPPSRDELTKNQVSLTCLVKGFYPSDIAVEWESNGQPENNYKTTPPVLDSDGSFFLYSKLTVDKSRWQQGNVFSCSVMHEALHNHYTQKSLSLSPGK
B2: human IgG1 antibody specific for protein 4, S239D/I332E + T256D/T307Q + R292C/V302C, -Kif (antibody)
chain: B1 chain with T139D, A181S, T190Q, I215E
B3: human IgG1 antibody specific for protein 4, S239D/S298A + T256D/T307Q, -Kif (antibody)
chain: B1 chain with T139D, C175R, C185V, T190Q
B4: human IgG1 antibody specific for protein 4, T256D/T307Q + R292C/V302C, -Kif (antibody)
chain: B1 chain with D122S, T139D, A181S, T190Q
B5: human IgG1 antibody specific for protein 4, S239D + R292C/V302C, -Kif (antibody)
chain: B1 chain with A181S
B6: human IgG1 antibody specific for protein 4, S239D/I332E + T256D/T307Q, -Kif (antibody)
chain: B1 chain with T139D, C175R, A181S, C185V, T190Q, I215E
B7: human IgG1 antibody specific for protein 4, S239D + T256D/T307Q + R292C/V302C, -Kif (antibody)
chain: B1 chain with T139D, A181S, T190Q
B8: human IgG1 antibody specific for protein 4, S239D + T256D/T307Q, -Kif (antibody)
chain: B1 chain with T139D, C175R, A181S, C185V, T190Q
B9: human IgG1 antibody specific for protein 4, S239D/I332E + R292C/V302C, -Kif (antibody)
chain: B1 chain with A181S, I215E
B10: human IgG1 antibody specific for protein 4, S239D + T256D/T307Q, +Kif (antibody)
chain: B1 chain with T139D, C175R, A181S, C185V, T190Q
B11: human IgG1 antibody specific for protein 4, S239D/S298A + T256D/T307Q, +Kif (antibody)
chain: B1 chain with T139D, C175R, C185V, T190Q
B12: human IgG1 antibody specific for protein 4, S239D + T256D/T307Q + R292C/V302C, +Kif (antibody)
chain: B1 chain with T139D, A181S, T190Q
B13: human IgG1 antibody specific for protein 4, S239D/I332E + T256D/T307Q, +Kif (antibody)
chain: B1 chain with T139D, C175R, A181S, C185V, T190Q, I215E
B14: human IgG1 antibody specific for protein 4, T256D/T307Q + R292C/V302C, +Kif (antibody)
chain: B1 chain with D122S, T139D, A181S, T190Q
B15: human IgG1 antibody specific for protein 4, S239D + R292C/V302C, +Kif (antibody)
chain: B1 chain with A181S
B16: human IgG1 antibody specific for protein 4, S239D/S298A + T256D/T307Q + R292C/V302C, +Kif (antibody)
chain: B1 chain with T139D, T190Q
B17: human IgG1 antibody specific for protein 4, S239D/I332E + T256D/T307Q + R292C/V302C, +Kif (antibody)
chain: B1 chain with T139D, A181S, T190Q, I215E
B18: human IgG1 antibody specific for protein 4, S239D/S298A + R292C/V302C, +Kif (antibody)
chain: B1 chain
B19: human IgG1 antibody specific for protein 4, S239D/I332E + R292C/V302C, +Kif (antibody)
chain: B1 chain with A181S, I215E

molecular target: T1, Recombinant human FcγRIIIa-V158 (human, UniProt P08637 17-208); assay: SPR; -kif
T1 sequence (P08637 17-208 F176V): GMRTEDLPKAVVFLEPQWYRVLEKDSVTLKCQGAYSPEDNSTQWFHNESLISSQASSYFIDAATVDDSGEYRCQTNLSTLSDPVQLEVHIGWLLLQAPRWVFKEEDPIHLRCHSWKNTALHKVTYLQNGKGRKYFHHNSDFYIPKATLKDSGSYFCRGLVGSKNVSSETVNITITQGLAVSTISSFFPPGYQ

Kd	Binder
41.8 nM	B1
15.1 nM	B2
30.7 nM	B3
410 nM	B4
68.6 nM	B5
12.3 nM	B6
87.5 nM	B7
60.4 nM	B8
11.1 nM	B9

molecular target: T1, Recombinant human FcγRIIIa-V158; assay: SPR; +kif

Kd	Binder
19.7 nM	B10
14 nM	B11
13.1 nM	B12
7.59 nM	B13
153 nM	B14
8.97 nM	B15
12.8 nM	B16
5.24 nM	B17
8.76 nM	B18
5.46 nM	B19
